What was measured:
[1] = molecular target: Myotoxin II, biotinylated (Bothrops asper) (UniProt P24605); test: BLI; […]) biosensors; […]; dissociation for 600 s in HEPES-MES pH 3.5; 25°C; 1:1 binding model, […]
[2] = molecular target: Myotoxin II, biotinylated (Bothrops asper) (UniProt P24605); test: BLI; […]) biosensors; […]; dissociation for 600 s in HEPES-MES pH 4.0; 25°C; 1:1 binding model, […]
[3] = molecular target: Myotoxin II, biotinylated (Bothrops asper) (UniProt P24605); test: BLI; […]) biosensors; […]; dissociation for 600 s in HEPES-MES pH 4.5; 25°C; 1:1 binding model, […]
[4] = molecular target: Myotoxin II, biotinylated (Bothrops asper) (UniProt P24605); test: BLI; […]) biosensors; […]; dissociation for 600 s in HEPES-MES pH 5.0; 25°C; 1:1 binding model, […]
[5] = molecular target: Myotoxin II, biotinylated (Bothrops asper) (UniProt P24605); test: BLI; […]) biosensors; […]; dissociation for 600 s in HEPES-MES pH 5.5; 25°C; 1:1 binding model, […]
[6] = molecular target: Myotoxin II, biotinylated (Bothrops asper) (UniProt P24605); test: BLI; […]) biosensors; […]; dissociation for 600 s in HEPES-MES pH 6.0; 25°C; 1:1 binding model, […]
[7] = molecular target: Myotoxin II, biotinylated (Bothrops asper) (UniProt P24605); test: BLI; […]) biosensors; […]; dissociation for 600 s in HEPES-MES pH 6.5; 25°C; 1:1 binding model, […]
[8] = molecular target: Myotoxin II, biotinylated (Bothrops asper) (UniProt P24605); test: BLI; […]) biosensors; […]; association in HEPES-MES pH 7.4 for 300 s, dissociation in HEPES-MES pH 5.5 for 600 s; 1:1 binding model, […]
[9] = molecular target: Myotoxin II, biotinylated (Bothrops asper) (UniProt P24605); test: BLI; […]) biosensors; […]; association in HEPES-MES pH 7.4 for 300 s, dissociation in HEPES-MES pH 7.4 for 600 s; 1:1 binding model, […]

Myotoxin II, biotinylated (Bothrops asper), sequence (P24605 17-137): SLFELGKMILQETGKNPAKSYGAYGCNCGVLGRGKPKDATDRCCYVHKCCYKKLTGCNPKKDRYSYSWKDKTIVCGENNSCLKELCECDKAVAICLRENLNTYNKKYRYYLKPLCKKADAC

B1: TPL0039_05_A03 Fab (Fab, V domains shown)
VH: QVQLVESGGGLAKPGRSLRLSCAVSGFTFSSYGMHWVRQAPGKGLEWVAVISYDGSNKYYADSVKGRFTISRDNSKNTLYLQMNSLRAEDTAVYYCASTLQQLDAFDIWGQGTMVTVSS
VL: NFMLTQPHSVSESPGKTITISCTRSSGSIASNYVQWYQQRPGSVPTPVIYEDDRRPSGVPDRFSGSIDSSSNSASLTISGLKTEDEADYYCQSYDSSSVVFGGGTKITVL
Work on B1 yielded a koff [1] of 0.059 s⁻¹, a koff [2] of 0.01 s⁻¹ and a koff [3] of 0.0038 s⁻¹. The koff [4] was 0.0016 s⁻¹, the koff [5] was 0.0012 s⁻¹ and the koff [6] was 0.00069 s⁻¹. It also gave a koff [7] of 0.00058 s⁻¹, a Kd [8] of 6.04 nM and a koff [8] of 0.0011 s⁻¹. It also gave a kon [8] of 180000 M⁻¹ s⁻¹, a Kd [9] of 1.5 nM and a koff [9] of 0.00031 s⁻¹. For the same binder, the kon [9] was 200000 M⁻¹ s⁻¹.

From paper PMC11385703
